Test results reported in the supplement of paper PMC10567573.

B1: EIF5 (parent)
chain: KQTIGNSCKACGYRGMLDTHHKLC

Variants of: B1
Experiment: protein stability index of a GFP-peptide fusion (GPS, HEK-293T) (PSI 1-6); higher = more stable
Settings: c terminus: a fixed tail appended
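Also: lentivirally expressed fusions sorted by FACS into six bins by GFP to DsRed ratio, PSI derived from sequencing read proportions per bin multiplied by bin number.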

| Variant | protein stability index |
| --- | --- |
| KQTIGNSCKACGYRGMLYTHHKLC [D18Y] | 2.09 |
| KQTIGNSCKACGYRGMLDAHHKLC [T19A] | 3.29 |
| KQTIGNSCKACGYRGMLDCHHKLC [T19C] | 3.45 |
| KQTIGNSCKACGYRGMLDDHHKLC [T19D] | 4.48 |
| KQTIGNSCKACGYRGMLDEHHKLC [T19E] | 3.62 |
| KQTIGNSCKACGYRGMLDFHHKLC [T19F] | 2.17 |
| KQTIGNSCKACGYRGMLDGHHKLC [T19G] | 4.05 |
| KQTIGNSCKACGYRGMLDHHHKLC [T19H] | 3.43 |
| KQTIGNSCKACGYRGMLDIHHKLC [T19I] | 2.68 |
| KQTIGNSCKACGYRGMLDKHHKLC [T19K] | 3.44 |
| KQTIGNSCKACGYRGMLDLHHKLC [T19L] | 2.29 |
| KQTIGNSCKACGYRGMLDMHHKLC [T19M] | 3.03 |
| KQTIGNSCKACGYRGMLDNHHKLC [T19N] | 3.81 |
| KQTIGNSCKACGYRGMLDPHHKLC [T19P] | 2.81 |
| KQTIGNSCKACGYRGMLDQHHKLC [T19Q] | 3.03 |
| KQTIGNSCKACGYRGMLDRHHKLC [T19R] | 2.79 |
| KQTIGNSCKACGYRGMLDSHHKLC [T19S] | 3.1 |
| KQTIGNSCKACGYRGMLDVHHKLC [T19V] | 2.49 |
| KQTIGNSCKACGYRGMLDWHHKLC [T19W] | 1.87 |
| KQTIGNSCKACGYRGMLDYHHKLC [T19Y] | 2.71 |
| KQTIGNSCKACGYRGMLDTAHKLC [H20A] | 2.24 |
| KQTIGNSCKACGYRGMLDTCHKLC [H20C] | 2.75 |
| KQTIGNSCKACGYRGMLDTDHKLC [H20D] | 3.64 |
| KQTIGNSCKACGYRGMLDTEHKLC [H20E] | 3.24 |

| Variant | protein stability index |
| --- | --- |
| KQTIGNSCKACGYRGMLDTFHKLC [H20F] | 2.07 |
| KQTIGNSCKACGYRGMLDTGHKLC [H20G] | 2.56 |
| KQTIGNSCKACGYRGMLDTIHKLC [H20I] | 2.12 |
| KQTIGNSCKACGYRGMLDTKHKLC [H20K] | 2.61 |
| KQTIGNSCKACGYRGMLDTLHKLC [H20L] | 2.24 |
| KQTIGNSCKACGYRGMLDTMHKLC [H20M] | 1.23 |
| KQTIGNSCKACGYRGMLDTNHKLC [H20N] | 2.92 |
| KQTIGNSCKACGYRGMLDTPHKLC [H20P] | 2.47 |
| KQTIGNSCKACGYRGMLDTQHKLC [H20Q] | 2.5 |
| KQTIGNSCKACGYRGMLDTRHKLC [H20R] | 2.28 |
| KQTIGNSCKACGYRGMLDTSHKLC [H20S] | 3.17 |
| KQTIGNSCKACGYRGMLDTTHKLC [H20T] | 1.98 |
| KQTIGNSCKACGYRGMLDTVHKLC [H20V] | 2.15 |
| KQTIGNSCKACGYRGMLDTWHKLC [H20W] | 2.48 |
| KQTIGNSCKACGYRGMLDTYHKLC [H20Y] | 2.09 |
| KQTIGNSCKACGYRGMLDTHAKLC [H21A] | 2.7 |
| KQTIGNSCKACGYRGMLDTHCKLC [H21C] | 3.17 |
| KQTIGNSCKACGYRGMLDTHDKLC [H21D] | 3.75 |
| KQTIGNSCKACGYRGMLDTHEKLC [H21E] | 3.21 |
| KQTIGNSCKACGYRGMLDTHFKLC [H21F] | 2.35 |
| KQTIGNSCKACGYRGMLDTHGKLC [H21G] | 3.17 |
| KQTIGNSCKACGYRGMLDTHIKLC [H21I] | 2.88 |
| KQTIGNSCKACGYRGMLDTHKKLC [H21K] | 3.02 |
| KQTIGNSCKACGYRGMLDTHLKLC [H21L] | 2.77 |

| Variant | protein stability index |
| --- | --- |
| KQTIGNSCKACGYRGMLDTHMKLC [H21M] | 2.89 |
| KQTIGNSCKACGYRGMLDTHNKLC [H21N] | 3.25 |
| KQTIGNSCKACGYRGMLDTHPKLC [H21P] | 3.17 |
| KQTIGNSCKACGYRGMLDTHQKLC [H21Q] | 2.51 |
| KQTIGNSCKACGYRGMLDTHRKLC [H21R] | 3 |
| KQTIGNSCKACGYRGMLDTHSKLC [H21S] | 2.9 |
| KQTIGNSCKACGYRGMLDTHTKLC [H21T] | 3.17 |
| KQTIGNSCKACGYRGMLDTHVKLC [H21V] | 3.29 |
| KQTIGNSCKACGYRGMLDTHWKLC [H21W] | 2.45 |
| KQTIGNSCKACGYRGMLDTHYKLC [H21Y] | 3.32 |
| KQTIGNSCKACGYRGMLDTHHALC [K22A] | 2.77 |
| KQTIGNSCKACGYRGMLDTHHCLC [K22C] | 4.4 |
| KQTIGNSCKACGYRGMLDTHHDLC [K22D] | 3.72 |
| KQTIGNSCKACGYRGMLDTHHELC [K22E] | 2.96 |
| KQTIGNSCKACGYRGMLDTHHFLC [K22F] | 2.46 |
| KQTIGNSCKACGYRGMLDTHHGLC [K22G] | 2.52 |
| KQTIGNSCKACGYRGMLDTHHHLC [K22H] | 3.37 |
| KQTIGNSCKACGYRGMLDTHHILC [K22I] | 2.37 |
| KQTIGNSCKACGYRGMLDTHHLLC [K22L] | 2.65 |
| KQTIGNSCKACGYRGMLDTHHMLC [K22M] | 3.09 |
| KQTIGNSCKACGYRGMLDTHHNLC [K22N] | 2.93 |
| KQTIGNSCKACGYRGMLDTHHPLC [K22P] | 3.79 |
| KQTIGNSCKACGYRGMLDTHHQLC [K22Q] | 2.76 |
| KQTIGNSCKACGYRGMLDTHHRLC [K22R] | 2.34 |

| Variant | protein stability index |
| --- | --- |
| KQTIGNSCKACGYRGMLDTHHSLC [K22S] | 2.79 |
| KQTIGNSCKACGYRGMLDTHHTLC [K22T] | 2.99 |
| KQTIGNSCKACGYRGMLDTHHVLC [K22V] | 2.77 |
| KQTIGNSCKACGYRGMLDTHHWLC [K22W] | 2.17 |
| KQTIGNSCKACGYRGMLDTHHYLC [K22Y] | 2.73 |
| KQTIGNSCKACGYRGMLDTHHKAC [L23A] | 3.89 |
| KQTIGNSCKACGYRGMLDTHHKCC [L23C] | 4.27 |
| KQTIGNSCKACGYRGMLDTHHKDC [L23D] | 4.67 |
| KQTIGNSCKACGYRGMLDTHHKEC [L23E] | 4.2 |
| KQTIGNSCKACGYRGMLDTHHKFC [L23F] | 3.64 |
| KQTIGNSCKACGYRGMLDTHHKGC [L23G] | 3.93 |
| KQTIGNSCKACGYRGMLDTHHKHC [L23H] | 4.67 |
| KQTIGNSCKACGYRGMLDTHHKIC [L23I] | 2.86 |
| KQTIGNSCKACGYRGMLDTHHKKC [L23K] | 3.36 |
| KQTIGNSCKACGYRGMLDTHHKMC [L23M] | 3.42 |
| KQTIGNSCKACGYRGMLDTHHKNC [L23N] | 3.83 |
| KQTIGNSCKACGYRGMLDTHHKPC [L23P] | 3.28 |
| KQTIGNSCKACGYRGMLDTHHKQC [L23Q] | 3.82 |
| KQTIGNSCKACGYRGMLDTHHKRC [L23R] | 3.4 |
| KQTIGNSCKACGYRGMLDTHHKSC [L23S] | 4.18 |
| KQTIGNSCKACGYRGMLDTHHKTC [L23T] | 4.03 |
| KQTIGNSCKACGYRGMLDTHHKVC [L23V] | 4.26 |
